Measurements: US6667052B2, “Transdermal delivery system” (priority 1997, dated 2003)
“Also recorded” adds a separate entry of the source. Counter-ions that a name gives are not always drawn. Like-named read-outs stand apart in the source and are kept apart here.

Legend:
[1] = system: non-fasted rats (Sprague-Dawley strain); assay: In-vivo evaluation of dermally-applied insulin after diethyl maleate (DEM) pretreatment: plasma glucose; set-up: species or system rat; conditions: FIG. 3
Description: Two non-fasted locally-grown rats (Sprague-Dawley strain) were anesthetized (15 mg/ml pentobarbital sodium, 0.2-0.3 ml i.p.). The rats were placed on their back, the abdominal hair was trimmed off, and then the skin was washed gently with distilled water. The animals were maintained with 0.1 ml pentobarbital 15 mg/ml solution to keep them continuously asleep during the experiment. Diethyl maleate, a glutathion depleting agent, was injected intraperitoneally (0.5 ml, 20% v/v ethanolic solution) to one rat only.
Blood sampling and glucose measurement were performed as described in example 5.

[2] = system: rats (Sprague-Dawley strain); assay: In-vivo evaluation of dermally-applied insulin with oxidant pretreatment: plasma glucose monitoring; set-up: species or system rat
GSH = conditions: iodine 0.5% to 10% applied; preliminary experiments, FIG. 10
[3] = iodine-pretreated skin exposed for 2 hours to insulin; FIG. 9B
Description: The method was performed according to Wroblewski et al (see above) using a reverse phase column (Vydac C18, 250×4.6 mm, 5? m), and a diodearray detector.

[4] = control rats not pretreated with iodine, dermal insulin
[5] = for applied insulin remained in the cylinder: after 3 hours
Description: Careful attention was paid that the liquid has covered the entire skin area in the cylinder and that no leaking has occurred.

## CCOC(=O)/C=C\C(=O)OCC [DEM, Diethyl maleate]
[1]; DEM 0.5 ml 20% v/v ethanolic solution i.p., then 50 IU Humulin R dermally
  plasma glucose: abrupt reduction

## OO [hydrogen peroxide]
[2]; Example 6: 3 hours oxidant pretreatment (5% silver protein, 0.01% potassium permangnate, 9% hydrogen peroxide or povidone-iodine), then 50 IU Humulin R, FIG. 2
  plasma glucose levels: No glucose reduction

## II [iodine]
GSH
  iodine concentration at which minimum level of GSH is obtained: about 2%

## insulin: human insulin, applied as Humulin R solution for injection, 0.5 ml equivalent to 50 IU
[2]; dermal insulin 50 IU, control rats without oxidant pretreatment
  plasma/blood glucose levels: no reduction; also recorded: not influenced; also recorded: almost the same levels with no change
[3]
  insulin form found in skin extract (HPLC): parent insulin was accumulated quantitatively
[4]
  plasma insulin levels: No elevation
[5]; both control and iodine-treated groups
  applied insulin remained in the cylinder: about 77%
[5]; control group (first value)
  applied insulin remained in the cylinder: 76.0±6.6%
[5]; iodine-treated group
  applied insulin remained in the cylinder: 77.3±7.8%
[5]; initial in vivo studies, insulin-containing wells on rat abdominal skin, no oxidant
  insulin quantities in the open wells: significantly decreased
[1]; rat without DEM, 50 IU Humulin R dermally
  plasma glucose: decreased relatively slower
